The target in assay [1] is T1, recombinant human HGF (R&D Systems, Catalog No. 294-HGN-025) (human, UniProt P14210 32-728). Kind of assay: cell-based or functional assay.
Assay [2] has as its target T1, recombinant human HGF (R&D Systems, …). The experiment in a line: competition ELISA (DELFIA): antibody inhibits c-Met binding to plate-coated HGF. Here is the method:
The plates then were blocked with 200 μL of 5% non-fat dry milk in PBS for 1 hour at room temperature. […] 100 μL of sample per well was transferred to the assay plate and incubated overnight at 4° C.
The resulting plates then were washed three times with PBS-0.1% Tween 20, and incubated for 1 hour at room temperature with Eu-labeled Streptavidin (Wallac, Catalog No. 1244-360) diluted 1:1000 in DELFIA assay buffer (Wallac, Catalog No. 4002-0010). The resulting plates were washed 3 times with DELFIA wash solution (Wallac, Catalog No. 4010-0010) and incubated with 100 μL/well DELFIA enhancement solution (Wallac #4001-0010) for 15 minutes at room temperature with agitation.
The plates were read on Victor³V instrument (Perkin Elmer) using the Europium method.
In general terms: ELISA stands for enzyme-linked immunosorbent assay.

Assay [3] shares this target. The experiment in a line: cell-based or functional assay. This is another data set of the same source.
The target of assay [4] is T2, recombinant mhm chimeric HGF protein containing the region I499-R556 of hHGF disposed between murine sequences (mouse-human-mouse chimera, UniProt Q08048 56-728).
T2 construct: also called mhm chimera (I499-R556)
T2 chain: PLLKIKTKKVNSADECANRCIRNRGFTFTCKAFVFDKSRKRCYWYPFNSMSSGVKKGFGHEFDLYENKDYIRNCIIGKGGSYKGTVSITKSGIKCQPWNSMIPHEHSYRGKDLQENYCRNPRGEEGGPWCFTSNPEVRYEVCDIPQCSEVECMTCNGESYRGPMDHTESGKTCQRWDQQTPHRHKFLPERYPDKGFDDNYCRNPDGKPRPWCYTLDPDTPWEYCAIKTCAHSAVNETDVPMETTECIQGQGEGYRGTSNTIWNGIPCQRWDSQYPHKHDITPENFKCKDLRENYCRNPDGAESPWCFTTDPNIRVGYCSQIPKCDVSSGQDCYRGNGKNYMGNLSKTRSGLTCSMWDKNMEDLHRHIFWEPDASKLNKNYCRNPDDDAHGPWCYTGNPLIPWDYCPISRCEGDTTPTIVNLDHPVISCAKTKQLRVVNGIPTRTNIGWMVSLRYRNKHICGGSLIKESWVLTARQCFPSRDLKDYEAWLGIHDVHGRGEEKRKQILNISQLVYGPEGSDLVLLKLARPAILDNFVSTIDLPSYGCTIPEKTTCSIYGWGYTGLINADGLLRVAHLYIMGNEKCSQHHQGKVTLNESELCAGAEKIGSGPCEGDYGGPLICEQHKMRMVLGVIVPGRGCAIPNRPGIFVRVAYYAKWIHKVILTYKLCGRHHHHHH
Kind of assay: SPR, antibody immobilized, HGF protein injected, 25 C. On the procedure: (§1) Analyses were performed at 25° C. using PBS (GIBCO, Catalog No. 14040-133) containing 0.05% surfactant P20 (BIAcore, Catalog No. R-1000-54), 2 mg/mL BSA (EMD, Catalog No. 2930) and 10 mg/mL CM-Dextran Sodium salt (Fluka, Catalog No. 86524) as running buffer. […] The resulting binding was determined as resonance units (RU) over baseline 30 seconds after the end of injection. […] Non-specific binding was monitored by comparing binding to a control surface.
A general note: In SPR one partner is held on a chip, and binding of the other changes the refractive index at the surface.

For assay [5], the target named is T3, recombinant mouse HGF (R&D Systems) (mouse, UniProt Q08048 33-728).
T3 construct: Bought protein, construct not described; also called rmHGF (R&D Systems); murine HGF
T3 sequence (Q08048 33-728 limits assumed): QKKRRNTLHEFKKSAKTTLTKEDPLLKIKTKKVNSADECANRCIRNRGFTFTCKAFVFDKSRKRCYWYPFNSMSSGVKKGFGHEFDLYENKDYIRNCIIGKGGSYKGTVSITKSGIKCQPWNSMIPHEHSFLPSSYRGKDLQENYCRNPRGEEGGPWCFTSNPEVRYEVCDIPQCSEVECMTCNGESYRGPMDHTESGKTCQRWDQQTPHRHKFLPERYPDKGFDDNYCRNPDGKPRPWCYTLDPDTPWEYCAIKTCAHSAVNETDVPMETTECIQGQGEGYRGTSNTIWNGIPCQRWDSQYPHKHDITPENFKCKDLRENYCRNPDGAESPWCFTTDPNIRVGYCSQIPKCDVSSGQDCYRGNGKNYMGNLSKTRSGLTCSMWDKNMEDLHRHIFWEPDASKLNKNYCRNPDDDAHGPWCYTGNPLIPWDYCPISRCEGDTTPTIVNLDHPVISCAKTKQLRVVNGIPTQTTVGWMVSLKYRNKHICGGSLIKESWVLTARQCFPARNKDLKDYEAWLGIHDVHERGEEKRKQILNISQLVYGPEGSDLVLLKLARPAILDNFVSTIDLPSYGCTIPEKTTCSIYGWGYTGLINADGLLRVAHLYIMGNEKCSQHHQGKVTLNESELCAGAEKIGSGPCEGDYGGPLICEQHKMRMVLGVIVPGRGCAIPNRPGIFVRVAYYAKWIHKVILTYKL
The assay is described as above. Here is the method: as §1

In assay [6] the target is T4, recombinant mhm chimeric HGF protein containing human W507-L585 HGF sequence disposed within mouse HGF … (mouse-human-mouse chimera, UniProt Q08048 56-728).
T4 construct: CHO supernatant; also called mhm chimera (W507-L585); MHM chimera (507-585)
T4 chain: T2 chain with R443Q, N445T, I446V, E499D, R502C, I505V, I508V, L523M
The description is as above. Here is the method:
as §1

Assay [7] addresses hHGF-Fc G555E (recombinant hHGF protein containing a glycine to glutamate substitution at position 555) (human). The description is as above. Here is the method: Each antibody was immobilized on a carboxymethylated dextran CM5 sensor chip (BIAcore, Catalog No. BR-1006-68) by amine coupling (BIAcore, Catalog No. BR-1000-50) using a standard coupling protocol according to manufacturer's instructions.
Analyses were performed at 25° C. using PBS (GIBCO, Catalog No. 14040-133) containing 0.05% surfactant P20 (BIAcore, Catalog No. R-1000-54), 2 mg/mL BSA (EMD, Catalog No. 2930) and 10 mg/mL CM-Dextran Sodium salt (Fluka, Catalog No. 86524) as running buffer. […] The resulting binding was determined as resonance units (RU) over baseline 30 seconds after the end of injection. […] Non-specific binding was monitored by comparing binding to a control surface where mouse IgG (Rockland, Catalog No. 010-0102) was immobilized using the same amine coupling procedure.

Changes are numbered by the printed parent chain.

T1 sequence (P14210 32-728 limits assumed): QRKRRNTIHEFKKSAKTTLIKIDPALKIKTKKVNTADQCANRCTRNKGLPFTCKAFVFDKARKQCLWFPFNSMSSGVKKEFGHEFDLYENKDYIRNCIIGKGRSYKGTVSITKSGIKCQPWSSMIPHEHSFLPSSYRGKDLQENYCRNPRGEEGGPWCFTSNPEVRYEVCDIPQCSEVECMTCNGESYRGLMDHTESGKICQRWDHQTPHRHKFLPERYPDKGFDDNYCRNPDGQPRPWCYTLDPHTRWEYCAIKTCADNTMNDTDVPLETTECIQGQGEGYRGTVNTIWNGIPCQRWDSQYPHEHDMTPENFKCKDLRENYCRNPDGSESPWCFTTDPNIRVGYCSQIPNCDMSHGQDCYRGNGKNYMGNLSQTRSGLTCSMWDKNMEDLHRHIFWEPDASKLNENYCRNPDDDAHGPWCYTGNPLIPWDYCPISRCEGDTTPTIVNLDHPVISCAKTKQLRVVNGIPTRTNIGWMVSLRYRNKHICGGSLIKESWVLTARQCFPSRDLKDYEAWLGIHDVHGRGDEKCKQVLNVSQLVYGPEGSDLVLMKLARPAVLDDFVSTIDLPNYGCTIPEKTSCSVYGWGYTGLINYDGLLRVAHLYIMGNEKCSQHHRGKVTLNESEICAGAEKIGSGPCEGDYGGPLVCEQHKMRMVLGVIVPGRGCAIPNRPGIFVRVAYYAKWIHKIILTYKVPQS
Sequence of hHGF-Fc G555E (recombinant hHGF protein containing a glycine to glutamate substitution at position 555) (human) (chain, as listed by the source G555E G555E limits assumed): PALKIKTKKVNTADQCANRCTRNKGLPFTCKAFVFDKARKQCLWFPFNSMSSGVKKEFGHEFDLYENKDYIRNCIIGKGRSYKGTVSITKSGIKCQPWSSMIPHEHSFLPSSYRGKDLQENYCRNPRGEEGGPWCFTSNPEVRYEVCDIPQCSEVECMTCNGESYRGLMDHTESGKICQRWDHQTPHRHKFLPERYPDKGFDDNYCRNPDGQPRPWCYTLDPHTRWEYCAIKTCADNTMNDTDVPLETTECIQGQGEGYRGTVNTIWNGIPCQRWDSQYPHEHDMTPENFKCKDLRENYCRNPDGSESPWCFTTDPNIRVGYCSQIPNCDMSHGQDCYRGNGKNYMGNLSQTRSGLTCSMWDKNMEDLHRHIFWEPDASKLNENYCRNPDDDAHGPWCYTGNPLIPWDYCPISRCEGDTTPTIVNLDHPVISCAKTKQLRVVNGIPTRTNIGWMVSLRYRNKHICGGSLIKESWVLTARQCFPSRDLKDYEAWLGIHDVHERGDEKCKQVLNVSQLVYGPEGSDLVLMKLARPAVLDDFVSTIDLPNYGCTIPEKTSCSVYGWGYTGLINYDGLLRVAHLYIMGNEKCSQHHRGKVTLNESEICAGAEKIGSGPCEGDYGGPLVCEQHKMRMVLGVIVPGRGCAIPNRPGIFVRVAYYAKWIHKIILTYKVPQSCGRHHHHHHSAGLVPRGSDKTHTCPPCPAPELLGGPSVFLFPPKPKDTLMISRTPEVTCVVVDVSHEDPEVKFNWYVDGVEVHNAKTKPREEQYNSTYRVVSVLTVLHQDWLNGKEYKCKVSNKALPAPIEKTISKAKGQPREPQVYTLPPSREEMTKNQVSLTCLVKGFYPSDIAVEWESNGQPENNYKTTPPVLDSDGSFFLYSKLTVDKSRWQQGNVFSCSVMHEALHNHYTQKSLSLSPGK

B1: anti-hHGF monoclonal antibody 2B8 (antibody, mouse IgG1, kappa)
heavy: QVQLQQPGAELVKPGTSVKLSCKASGYTFTTYWMHWVNQRPGQGLEWIGEINPTNGHTNYNEKFKSKATLTVDKSSSTAYMQLSSLTSEDSAVYYCARNYVGSIFDYWGQGTTLTVSSAKTTPPSVYPLAPGSAAQTNSMVTLGCLVKGYFPEPVTVTWNSGSLSSGVHTFPAVLQSDLYTLSSSVTVPSSTWPSETVTCNVAHPASSTKVDKKIVPRDCGCKPCICTVPEVSSVFIFPPKPKDVLTITLTPKVTCVVVDISKDDPEVQFSWFVDDVEVHTAQTQPREEQFNSTFRSVSELPIMHQDWLNGKEFKCRVNSAAFPAPIEKTISKTKGRPKAPQVYTIPPPKEQMAKDKVSLTCMITDFFPEDITVEWQWNGQPAENYKNTQPIMDTDGSYFVYSKLNVQKSNWEAGNTFTCSVLHEGLHNHHTEKSLSHSPGK
light: NIVMTQSPKSMSMSVGERVTLSCKASENVVSYVSWYQQKPAQSPKLLIYGASNRNTGVPDRFTGSGSATDFTLTISSVRAEDLADYHCGQSYNYPYTFGGGTRLEIKRADAAPTVSIFPPSSEQLTSGGASVVCFLNNFYPKDINVKWKIDGSERQNGVLNSWTDQDSKDSTYSMSSTLTLTKDEYERHNSYTCEATHKTSTSPIVKSFNRNEC
notes: Murine IgG1 kappa from hybridoma; also called murine 2B8; mouse 2B8
The IC50 is the point on the concentration scale where inhibition reaches its midpoint. As for B1, the “IC50, neutralization of HGF stimulated BrdU incorporation in 4 MBr-5 cells” value in assay [1] was determined as 1.41 nM. Besides, the IC50 in assay [2] came out at 5.57 nM. In addition, the “EC50, inhibition of HGF-stimulated c-Met phosphorylation in PC-3 cells, Average of Two Trials” value in assay [3] came out at 0.91 nM. The binding result is “binds” in assay [4], “no binding” in assay [5], “binds” in assay [6] and “binds” in assay [7].

B2: HE2B8-4 (LRMR2B8HC + IgG1 constant region G1m(3) allotype allele 1, plus LRMR2B8LC + Kappa constant region Km(3) allotype allele 1) (antibody, V domains shown)
VH: QVQLVQPGAEVKKPGTSVKLSCKASGYTFTTYWMHWVRQAPGQGLEWIGEINPTNGHTNYNQKFQGRATLTVDKSTSTAYMELSSLRSEDTAVYYCARNYVGSIFDYWGQGTLLTVSS
VL: DIVMTQSPDSLAMSLGERVTLNCKASENVVSYVSWYQQKPGQSPKLLIYGASNRESGVPDRFSGSGSATDFTLTISSVQAEDVADYHCGQSYNYPYTFGQGTKLEIKR
notes: Human Engineered 2B8 variant, human IgG1 kappa, made in HEK293E cells
For the molecule B2, in assay [3], the “EC50, inhibition of HGF-stimulated c-Met phosphorylation in PC-3 cells, Average of Two Trials” value amounted to 0.75 nM. Further, the binding result in assay [4] is recorded as “binds”; in assay [5], “no binding”; in assay [6], “binds”.
